In patent publication US11052053B2, “Nanoparticle comprising a bio-resorbable polyester, a hydrophilic polymer and an acylated human lactoferrin-derived peptide” (Evonik Operations GmbH, priority 2018, dated 2021):
Bridge positions count the residues as written; N and C are the ends. * marks the point of attachment. Palmitoyl = CCCCCCCCCCCCCCCC(=O)*

Experiment: hLFF-peptide precipitation test (freeze-thawing)
Assay type: physicochemical
Settings: 2 mM peptide in 50 mM Hepes buffer pH 8, freezing at −18° C.
Description: hLFF-peptides tested for precipitation by one freeze-thawing cycle (freezing at −18° C.) with hLFF peptides dissolved in 50 mM Hepes buffer pH 8 at a concentration of 2 mM.
Solutions of acylated and biacylated human lactoferrin peptides were tested for precipitation in several freeze-thaw cycles.

Substance | precipitation of peptide solution after freeze-thawing
Acetyl-NH-KCFQWQRNMRKVRGPPVSCIKR-CONH2 (Ac-KCFQWQRNMRKVRGPPVSCIKR-NH2; disulfide 2-19; listed as Homo sapiens) [C2-hLFF] | do not precipitate
palmitoyl-NH-KCFQWQRNMRKVRGPPVSCIKR-CONH2 (Palmitoyl-KCFQWQRNMRKVRGPPVSCIKR-NH2; disulfide 2-19) [C16-hLFF] | do not precipitate
